Here are results for 1 substance from paper PMC6317279.

The target in the assay is FLAG-tagged CRTC3 S391A (mouse) (UniProt Q91X84).
Sequence of UniProt Q91X84 (Q91X84 whole entry S391A): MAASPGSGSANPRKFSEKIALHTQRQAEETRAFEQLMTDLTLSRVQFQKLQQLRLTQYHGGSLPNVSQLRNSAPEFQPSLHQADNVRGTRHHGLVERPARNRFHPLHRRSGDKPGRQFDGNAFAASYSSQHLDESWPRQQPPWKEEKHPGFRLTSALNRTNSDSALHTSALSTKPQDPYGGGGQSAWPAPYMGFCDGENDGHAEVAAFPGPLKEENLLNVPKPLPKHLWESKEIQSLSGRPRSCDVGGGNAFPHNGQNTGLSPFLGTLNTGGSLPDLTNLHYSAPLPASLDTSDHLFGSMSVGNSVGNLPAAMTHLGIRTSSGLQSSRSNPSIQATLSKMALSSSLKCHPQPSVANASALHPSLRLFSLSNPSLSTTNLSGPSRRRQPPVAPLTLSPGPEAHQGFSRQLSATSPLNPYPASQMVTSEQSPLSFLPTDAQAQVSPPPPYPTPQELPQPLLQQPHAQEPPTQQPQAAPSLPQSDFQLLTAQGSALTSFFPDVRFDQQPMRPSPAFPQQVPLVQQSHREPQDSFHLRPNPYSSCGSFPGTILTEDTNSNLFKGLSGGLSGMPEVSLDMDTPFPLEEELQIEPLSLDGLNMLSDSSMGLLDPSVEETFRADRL

With “B55 PP2A holoenzyme (protein phosphatase 2A: catalytic, scaffold and 55-kDa regulatory B subunits) (from UniProt P67775 1-309; P30153 1-589; P63151 1-447) (complex)”, the transient CRE luciferase-based (EVX-Luc) reporter assay, basal transcriptional activity of S391A mutant CRTC3 against WT CRTC3 stood at 2 fold lower.
